Laboratory results: article PMC3616741
Where two headings read alike, the source gives them in different places.

Legend:
Assay in all cases: SPR
[1] = biological target: T1, U2AF65 1,2 (RRM1-RRM2, wild-type linker) (Homo sapiens, UniProt P26368 148-336)
U2AF65 1,2 MUT = U2AF65 1,2 MUT (Homo sapiens, UniProt P26368 148-336, D293N;K329Q;L331K;Q333E)
[2] = biological target: T1, U2AF65 1,2 (RRM1-RRM2, wild-type linker); remark: listed apart in the source

T1 sequence (P26368 148-336, one chain of several): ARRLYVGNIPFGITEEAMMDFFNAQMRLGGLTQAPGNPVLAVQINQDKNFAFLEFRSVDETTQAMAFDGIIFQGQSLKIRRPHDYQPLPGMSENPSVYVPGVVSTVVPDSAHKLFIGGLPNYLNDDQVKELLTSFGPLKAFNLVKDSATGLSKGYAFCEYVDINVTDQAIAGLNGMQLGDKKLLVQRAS
Sequence of U2AF65 1,2 MUT (P26368 148-336 D293N/K329Q/L331K/Q333E, one chain of several): as the sequence (P26368 148-336, one chain of several) above, with D146N, K182Q, L184K, Q186E counted along it

Binder | Kd [1] [µM] | Kd (U2AF65 1,2 MUT) [µM] | Kd [2] [µM]
CCCUUUCUUUUCC (ssRNA) [rC(7)] | 9.3 ± 0.4 | – | –
CCCUCUUUUUUCC (ssRNA) [rC(5)] | 13.9 ± 1 | – | –
CCCCCCUUUUUCC (ssRNA) [3'-5rU] | 45.2 ± 3.4 | – | –
CCUUUUUCCCCCC (ssRNA) [5'-5rU] | 14.4 ± 0.8 | – | –
CCUCUCUUCCCCC (ssRNA) [rU(3)C(4,6,9,10,11)] | 14.4 ± 1.1 | – | –
UUUUUUUUUUUUU (ssRNA) [rU13] | 13.1 ± 0.9 | – | –
CCCCCUUCUCUCC (ssRNA) [rC(4,5,8,10)] | 27.9 ± 1.3 | – | –
CCCUUUUUUCUCC (ssRNA) [rC(10)] | 11.9 ± 0.8 | – | –
CCCUUUCUCCUCC (ssRNA) [rC(7,9,10)] | 11.6 ± 0.8 | – | –
CCCCCCCUUUUCC (ssRNA) [3'-4rU] | 69.4 ± 3.1 | 12.5 ± 1.3 | –
CCCUUUCUCUUCC (ssRNA) [rC(7,9)] | 11 ± 0.6 | – | –
CCCCCCCCUUUCC (ssRNA) [3'-3rU] | 89.5 ± 3.9 | – | –
CCCUUUUUCUUCC (ssRNA) [rC(9)] | 13.7 ± 1.3 | – | –
CCCUUUUUUUUCC (ssRNA) [rAdML13] | – | – | 12.5 ± 1.6
CCCUUUCUUCUCC (ssRNA) [rC(7,10)] | 14.5 ± 0.9 | – | –
CCUUUCCCCCCCC (ssRNA) [5'-3rU] | 22 ± 0.9 | – | –
CCUUUUCCCCCCC (ssRNA) [5'-4rU] | 14.3 ± 0.6 | 14 ± 1.6 | –
